# Experimental data as given in the RNAGym collection of RNA variant scans (doi:10.7554/elife.80360).
# B1: HDV Ribozyme (parent)
# chain: GGCCGGCAUGGUCCCAGCCUCCUCGCUGGCGCCGGCUGGGCAACAUUCCGAGGGGACCGUCCCCUCGGUAAUGGCGAAUGGGACCCA
# Variants of: B1
# Assay: self-cleavage, relative activity (ratio to wild type); higher = more cleavage; co-transcriptional
row,Variant,self-cleavage
1,GGCCGGCAUGGUCCCAGCCUCUCCGCUGGCGCCGGCUGGGCAACAUUCCGAGGGGACCGUCCCCUCGGUAAUGGCGAAUGGGACCCA [C22U U23C],0.68
2,GGCCGGCAUGGUCCCAGCCUCCUCGCUGGCGCCGGCUAGGCAACAUUCCGAGGGGACCGUCCACUCGGUAAUGGCGAAUGGGACCCA [G38A C63A],0.0978
3,GGCCGGCAUGGUCCCAGCCUCCUCGCUGGCGCCGACUGGGCACCAUUCCGAGGGGACCGUCCCCUCGGUAAUGGCGAAUGGGACCCA [G35A A43C],0.0272
4,GGCCGGCAUGGUCCCAGCCUCCUCGCUGGCGCCGGCUGGCCAUCAUUCCGAGGGGACCGUCCCCUCGGUAAUGGCGAAUGGGACCCA [G40C A43U],0.0639
5,GGCCGGCAUGGUCCCAGCCUCCUCGCUGGCGCCGGCGGCGCAACAUUCCGAGGGGACCGUCCCCUCGGUAAUGGCGAAUGGGACCCA [U37G G39C],0.185
6,GGCCGGCAUGGUCCCAGCCUCCUCGCUGGCGCCGGCUGUGCAACAUUCCGACGGGACCGUCCCCUCGGUAAUGGCGAAUGGGACCCA [G39U G52C],0.831
7,GGCCGGCAUGGUCCCAGCCUCCUCGCUGGCGCCGUCUGGGCAACAUUCCGAGGGGACCGUUCCCUCGGUAAUGGCGAAUGGGACCCA [G35U C61U],0.554
8,GGCCGGCAUGGUCCCACCCUCCUCGCUGGCGCCGGCUGGGCAACUUUCCGAGGGGACCGUCCCCUCGGUAAUGGCGAAUGGGACCCA [G17C A45U],0.107
9,GGCCGGCAUGGUCCCAGCCUCCUCGAUGGCGCCGGCUGGGGAACAUUCCGAGGGGACCGUCCCCUCGGUAAUGGCGAAUGGGACCCA [C26A C41G],0.883
10,GGCCGUCAUGGUCCCAGCCUCCUCGCUGGCGCCGGCUGGGCAACAUUCCGAGGGGACCGUCCCCUCGGUAAUGGUGAAUGGGACCCA [G6U C75U],0.113
11,GGCUGGCAUGGUCCCAGCCUCCUCGCUGGCGCCGGCUGGGCAACAUUCCGGGGGGACCGUCCCCUCGGUAAUGGCGAAUGGGACCCA [C4U A51G],0.467
12,GGGCGGCAUGGUCCCAGCCUCCUCGCUGGCGCCGGCUGGGCAACAUUCCUAGGGGACCGUCCCCUCGGUAAUGGCGAAUGGGACCCA [C3G G50U],0.665
13,AGCCGGCAUGGUCCCAGCCCCCUCGCUGGCGCCGGCUGGGCAACAUUCCGAGGGGACCGUCCCCUCGGUAAUGGCGAAUGGGACCCA [G1A U20C],0
14,GGCCGGCAUGGUCCCAGCCUCCUCGCUGGCGCCGGCAGGGCAACAUUCCGAGGGGACCGUCCCCUCGGUAAUGGCGAAUGGGACCUA [U37A C86U],0.35
15,GGCCGGCAUGGUCCCAGCCUCCUCGCUGGCGCCGGCUGGGCAACAUUCCGAGGGGACCAUCCCCUCGGUAAUGGCGAAUGAGACCCA [G59A G81A],0.472
16,GGCCGGCAUGGUCCCAGCCUCCUCGCUGGAGCCGGCUGGGCAAUAUUCCGAGGGGACCGUCCCCUCGGUAAUGGCGAAUGGGACCCA [C30A C44U],0.132
17,GGCCGGCAUGGUCCCAGCCUCCUCGCUGGCGCCGGCUGGGCAACAUUCCGAGGGGACCGUCCCCUCGGUAAUGGCGAGUGCGACCCA [A78G G81C],0.148
18,GGCCGGCAUGGUCCCAGCCUCCUCGCUGGCGCCGGCUGGGCAACAUUCCGAGGGGACCGUCCCCUCGGUAAGGGCGAAGGGGACCCA [U72G U79G],0.332
19,GGCCGGCAUGGUCCCAGCCUCCUGGCUGGCGCCGGCUGGGCAACAUUCCGAGGGGACCGUCCCCUCGAUAAUGGCGAAUGGGACCCA [C24G G68A],0.22
20,GGCCGGCAUGGUCCCAGCCUCCUCGCAGGCGCCGGCUGGGCACCAUUCCGAGGGGACCGUCCCCUCGGUAAUGGCGAAUGGGACCCA [U27A A43C],0.0723
21,GGUCGGCAUGGUCCCAGCCUCCUCGCUGGCGCCGGCUGGGCAACAUUCUGAGGGGACCGUCCCCUCGGUAAUGGCGAAUGGGACCCA [C3U C49U],0.762
22,GGCCGGCAUGGUCCCAGCCUCCUCGCUGGCGCCGGCUGGGCAACAUUCUGAGGGGACCGUCCCCUCGGGAAUGGCGAAUGGGACCCA [C49U U69G],1.16

row,Variant,self-cleavage
1,GGACGGCAUGGUCCCAGCCUCCUCGCUGGCGCCGGCUGGGCAACAAUCCGAGGGGACCGUCCCCUCGGUAAUGGCGAAUGGGACCCA [C3A U46A],0.148
2,GGCCGGCAUGGUCCCAGCCUCCUCGCUGGCGCCGGCUGGGCAACAUUCCGAGGGGACCAUCCCCUCGGGAAUGGCGAAUGGGACCCA [G59A U69G],1
3,GGCCGGCAUGGUCCCAGCCUCCUCGGUGGCGCCGGCUGGGCAACAUUCCGACGGGACCGUCCCCUCGGUAAUGGCGAAUGGGACCCA [C26G G52C],0.889
4,GGCCGGCAUGGUCCCAGCCUCCUCGCUGGCGCCGGCUGGCCAACAUUUCGAGGGGACCGUCCCCUCGGUAAUGGCGAAUGGGACCCA [G40C C48U],0.326
5,GGCCGGCAUGGUCCCAGCCUCCUCGCUGGCGCCGGCUCGGCAACAUUCCGAGGGGACCGUCCCCUAGGUAAUGGCGAAUGGGACCCA [G38C C66A],0.189
6,GGCCGGCAUGGUCCCAGCCACCUCGCUGGCGCCGGCUGGGCAACAUUCCGAGGGGACUGUCCCCUCGGUAAUGGCGAAUGGGACCCA [U20A C58U],0.158
7,GGUCGGCAUGGUCCCAGCCUCCUCGCUGGCGCCGGCUGGGCAACAUUCCGAGGGGACCGUCCCCUCGGUAAUGGCGAAUGGGAUCCA [C3U C84U],0.808
8,GGCCGGCAUGGUCUCAGCCUCCUCGCUGGCGUCGGCUGGGCAACAUUCCGAGGGGACCGUCCCCUCGGUAAUGGCGAAUGGGACCCA [C14U C32U],0.86
9,CGCCGGCAUGGUCCCAGCCCCCUCGCUGGCGCCGGCUGGGCAACAUUCCGAGGGGACCGUCCCCUCGGUAAUGGCGAAUGGGACCCA [G1C U20C],0.0723
10,GACCGGCAUGGUCCCAGCCUCCUCGCUGGCCCCGGCUGGGCAACAUUCCGAGGGGACCGUCCCCUCGGUAAUGGCGAAUGGGACCCA [G2A G31C],0.0354
11,GGCCGGCAUGGUCCCAGCCUCCUCGCUGGCGCCGGCUGGGCAACAUUCCGCGGGGGCCGUCCCCUCGGUAAUGGCGAAUGGGACCCA [A51C A56G],0.831
12,GGCCGGCAUGGUCCCAGCCUCCUCGCUGGCGCCGGCUGGGCAACAUUCCGAGGGGACCGUCCCCCCGGUAGUGGCGAAUGGGACCCA [U65C A71G],0.935
13,GGCCGGCAUGGUCCCGGCCUCCUCGCUGGCGCCGGAUGGGCAACAUUCCGAGGGGACCGUCCCCUCGGUAAUGGCGAAUGGGACCCA [A16G C36A],0.229
14,GGCCGGCAUGGUCCCAGCCUCCUCCCUGCCGCCGGCUGGGCAACAUUCCGAGGGGACCGUCCCCUCGGUAAUGGCGAAUGGGACCCA [G25C G29C],0.0489
15,GCCCGGCAUGGUCCCAGCCUCCUCGCUGGCGCCGGCUGGGCAUCAUUCCGAGGGGACCGUCCCCUCGGUAAUGGCGAAUGGGACCCA [G2C A43U],0.0297
16,GGCCGGCAUGCUCCCAGCCUCCUCGCUGGCGCCGGCUGGGCAACAUUCCGAGGGGGCCGUCCCCUCGGUAAUGGCGAAUGGGACCCA [G11C A56G],0.172
17,GACCGGCAUGGUCCCAGCCUCCUCGCUGGCGCCGGCUGGGCAACAUUCCGAGGGGAUCGUCCCCUCGGUAAUGGCGAAUGGGACCCA [G2A C57U],0.203
18,GGCCGGCAUGGUCCCAGCCUGCUCGCUGGCGCCGGCUGGGCAACAUUCCGAGGGGACCGUCCCCUCGGUAAUGGCGAUUGGGACCCA [C21G A78U],0.196
19,GGCCGGCAGGGUCCCAGCCUCCUCGCUGGCGCCGGCUGGGCAACAUUCCGAGGGGACAGUCCCCUCGGUAAUGGCGAAUGGGACCCA [U9G C58A],1.42
20,GGCCGGCAUGGUCCCAGCCUCCUCACUGGCGCCGGCUUGGCAACAUUCCGAGGGGACCGUCCCCUCGGUAAUGGCGAAUGGGACCCA [G25A G38U],0.0744
21,GGCCGUCAUGGUCCCAGCCUCCUCGCUGGCGCCGGCUGGGCAACCUUCCGAGGGGACCGUCCCCUCGGUAAUGGCGAAUGGGACCCA [G6U A45C],0.0462
22,GGCCGGCAUGGUCCCAGCCUCCUCGCUGGUGCCGGCUGGGCAACAUUCCGAGGGGACCGUCCCCUCGGUGAUGGCGAAUGGGACCCA [C30U A70G],0.8

row,Variant,self-cleavage
1,GGCCGGCAUGGUCCCAGCCUCCUCGCUGGCGCCGGCUGGGCAAUAUUCCGAGGCGACCGUCCCCUCGGUAAUGGCGAAUGGGACCCA [C44U G54C],0.694
2,GGCCGGCAUGUUCCCAGCCUCCUCGCUGGCGCCGGCUGGGCAACAUUCCGAGGGGAACGUCCCCUCGGUAAUGGCGAAUGGGACCCA [G11U C57A],0.447
3,GGCCGGCAUGGUCCUAGCCUCCUCGCUGGCGCCGGCUGGGCAACAUUCCGAGGGGACCGUACCCUCGGUAAUGGCGAAUGGGACCCA [C15U C61A],1.27
4,GGCCGACAUGGUCCGAGCCUCCUCGCUGGCGCCGGCUGGGCAACAUUCCGAGGGGACCGUCCCCUCGGUAAUGGCGAAUGGGACCCA [G6A C15G],0.133
5,GGCCGGCAUUGUCCCAGCCUCCUCGCUGGCGCCGGCUGGGCAACAUUCCGAGGGGAUCGUCCCCUCGGUAAUGGCGAAUGGGACCCA [G10U C57U],0.855
6,GGCCGGGAUGGUCCCAGCCUCCUCGCUGGCGCCGGCUGGGCAACAUUCCGAGGGGACCGUCCCCUCCGUAAUGGCGAAUGGGACCCA [C7G G67C],0.0573
7,GGCCGGCAUGGUCCAAGCCUCCUCGCUGGCGCCGGCUGGGCAACAUUCCGAGGGGACCGUGCCCUCGGUAAUGGCGAAUGGGACCCA [C15A C61G],0.508
8,GGCCGGCAUGGUCCCAACGUCCUCGCUGGCGCCGGCUGGGCAACAUUCCGAGGGGACCGUCCCCUCGGUAAUGGCGAAUGGGACCCA [G17A C19G],0
9,GGCGGGCAUGGUCCCAGCCUCCUCGCUGGCGCCGGCUGGGCAACAUUCCGAGGGGACCGUCCCCUCGGUAAUGGAGAAUGGGACCCA [C4G C75A],0.0692
10,GGCCGGCAUGGUUCCAGCCUCCUCGCUGGCGCCGGCUGGGCAACAUUCCGAGGGGACCGUCGCCUCGGUAAUGGCGAAUGGGACCCA [C13U C62G],0.554
11,GGCCGGCAUGGUCCCAGCCUCCUCGCUGGCGCCGGCUGGGCAACAUUCCGCGCGGACCGUCCCCUCGGUAAUGGCGAAUGGGACCCA [A51C G53C],0.196
12,GGCCGGCAUGGUCCCAGCCUCCUCACUGGCGCCGGCUGGGCAACAUUCCGAGGGGACCGUCCCCUCGGUUAUGGCGAAUGGGACCCA [G25A A70U],0.17
13,GGCCGGCAUGGUCCCAGCUUCCUCGCUGGCGCCGGCUGGGCAACAUUCCGAGGGGACCGUCCCCUCCGUAAUGGCGAAUGGGACCCA [C19U G67C],0.0715
14,GGCCGGCAUGGCCCCAGCCUCCUCGGUGGCGCCGGCUGGGCAACAUUCCGAGGGGACCGUCCCCUCGGUAAUGGCGAAUGGGACCCA [U12C C26G],0.914
15,GGCCGGGAUGGUCCCAGCCUCCUCGCUGGCGCCGGCUGGGCAACAUUCCGAGGGGACCGUCCCCUCGGUAAUGGCGAAUGGUACCCA [C7G G82U],0
16,GACCGGCAUGGUCCCAGCCUCCUCGCUGGCGCCGGCUGGGCAACACUCCGAGGGGACCGUCCCCUCGGUAAUGGCGAAUGGGACCCA [G2A U46C],0.109
17,GGCCGGCAUGGUCCCAGCCUCCUCGCUGGCGCCGGCUGGGCAACAUUCCGAGGGGACCGUCGCUUCGGUAAUGGCGAAUGGGACCCA [C62G C64U],0.485
18,GGCCGGCAUGGUCCCAGCCUCCUCGCUGGCGCCGUCUGGGCAACAUUCUGAGGGGACCGUCCCCUCGGUAAUGGCGAAUGGGACCCA [G35U C49U],0.554
19,GGCCGGCAUGGUCCCAGCCUCCUCGCUGGCGCCGGCUGGGCAACAUAACGAGGGGACCGUCCCCUCGGUAAUGGCGAAUGGGACCCA [U47A C48A],0.973
20,GGCCGGCAUGGUCCCAGCUUCCUCGCUGGCGCCGGCUGGGCAGCAUUCCGAGGGGACCGUCCCCUCGGUAAUGGCGAAUGGGACCCA [C19U A43G],0.0545
